Assay [1] addresses T1, MUC-1 gene product, the membrane mucin glycoprotein (polymorphic epithelial mucin or PEM) (human, UniProt P15941 24-1255).
T1 construct: whole, on cells; SKOV-3 is also named in the method
Description: flow cytometry equilibrium binding on MCF7 cells, non-linear regression; 0 h at 37 C.
Description: (§1) Bound antibodies were detected under the same conditions, as described in the section entitled binding assays above.
After two final washing steps in 200 μl of FACS buffer, the cells were fixed in PBS buffer containing 2% paraformaldehyde for 15 minutes at room temperature and analysed by flow cytometry.
(§2) The median fluorescence intensity (MFI) was determined as described in the binding assays section above and the background fluorescence was subtracted. Equilibrium constants were determined by using the Marquardt-Levenberg algorithm for non-linear regression with the GraphPad Prism version 3.0a for Macintosh (GraphPad Software, San Diego, Calif.).

Assay [2] concerns the target T1, MUC-1 gene product, the membrane mucin …. The experiment in a line: flow cytometry equilibrium binding on MCF7 cells; reference scFv 4.9M. Background: Flow cytometry measures light scatter and fluorescence of single cells or particles in a stream.
Description: as §1, §2
The target is the same in assay [3]. Description: flow cytometry equilibrium binding on MCF7 cells; after pre-incubation in PBS for 1 h at 37 C against no pre-incubation.
Description: as §1, §2
Assay [4] has the same target. Description: flow cytometry equilibrium binding on MCF7 cells, non-linear regression; after pre-incubation in PBS for 1 h at 37 C.
Description: as §1, §2

As a reminder, the Kd is the constant that tells how readily two partners part at equilibrium. Low values mean higher affinity, high ones lower affinity.

T1 sequence (P15941 24-1255): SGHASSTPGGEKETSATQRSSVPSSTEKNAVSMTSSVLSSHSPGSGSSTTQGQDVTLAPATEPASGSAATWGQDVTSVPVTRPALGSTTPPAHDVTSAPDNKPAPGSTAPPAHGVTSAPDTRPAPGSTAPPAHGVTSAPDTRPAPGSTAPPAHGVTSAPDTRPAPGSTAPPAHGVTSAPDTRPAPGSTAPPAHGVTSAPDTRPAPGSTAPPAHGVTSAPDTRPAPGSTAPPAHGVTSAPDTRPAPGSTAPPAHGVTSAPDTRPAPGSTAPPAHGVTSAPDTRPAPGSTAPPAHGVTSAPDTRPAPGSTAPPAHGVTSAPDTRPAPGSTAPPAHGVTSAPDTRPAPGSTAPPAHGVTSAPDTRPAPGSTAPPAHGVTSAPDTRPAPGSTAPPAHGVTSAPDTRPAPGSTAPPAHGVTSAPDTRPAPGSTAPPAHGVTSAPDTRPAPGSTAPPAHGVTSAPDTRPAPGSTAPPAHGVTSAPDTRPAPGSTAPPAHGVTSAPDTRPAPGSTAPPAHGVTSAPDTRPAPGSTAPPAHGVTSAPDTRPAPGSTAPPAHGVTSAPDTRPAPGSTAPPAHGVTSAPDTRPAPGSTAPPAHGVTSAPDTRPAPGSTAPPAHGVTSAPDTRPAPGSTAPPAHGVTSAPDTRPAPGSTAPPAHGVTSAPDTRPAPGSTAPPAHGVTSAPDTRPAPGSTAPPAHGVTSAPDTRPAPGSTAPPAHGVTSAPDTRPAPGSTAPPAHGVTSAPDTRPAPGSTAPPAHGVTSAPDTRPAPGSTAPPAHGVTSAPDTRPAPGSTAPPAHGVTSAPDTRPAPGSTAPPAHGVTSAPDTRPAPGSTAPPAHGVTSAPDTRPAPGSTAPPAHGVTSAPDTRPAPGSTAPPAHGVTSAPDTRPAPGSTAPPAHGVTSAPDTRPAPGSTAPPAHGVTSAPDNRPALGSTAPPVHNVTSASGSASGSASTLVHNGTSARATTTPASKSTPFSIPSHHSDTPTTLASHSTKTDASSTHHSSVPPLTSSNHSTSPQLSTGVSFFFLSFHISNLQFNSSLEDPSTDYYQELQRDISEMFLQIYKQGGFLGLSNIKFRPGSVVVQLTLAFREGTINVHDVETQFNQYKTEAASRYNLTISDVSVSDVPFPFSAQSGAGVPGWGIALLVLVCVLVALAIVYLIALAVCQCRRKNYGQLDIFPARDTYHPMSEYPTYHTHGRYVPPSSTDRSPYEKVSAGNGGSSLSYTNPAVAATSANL

B1: diabody Db 4.9M (other)
chain 1: QVQLVQSGAEVKKPGASVKVSCKASGYTFSAYWIEWVRQAPGKGLEWVGEILPGSNNSRYNEKFKGRVTVTADTSTNTAYMELSSLRSEDTAVYYCARSYDFAWFAYWGQGTLVTVSSGGGGSDIQMTQSPSSLSASVGDRVTITCKSSQSLLYSSNQKIYLAWYQQKPGKAPKLLIYWASTRESGVPSRFSGSGSGTDFTFTISSLQPEDIATYYCQQYYRYPRTFGQGTKVEIKR
chain 2: B1 chain 1
notes: also called diabody 4.9
As for B1, in assay [1], the dissociation constant Kd is 8 nM. Moreover, the “fold higher affinity than the corresponding scFv 4.9M” value in assay [2] was found to be 13 fold.

B2: huHMFG1 scFv mutant 4.9M (stability engineered huHMFG1-scFv/Clone 4.9) (scFv)
scFv: QVQLVQSGAEVKKPGASVKVSCKASGYTFSAYWIEWVRQAPGKGLEWVGEILPGSNNSRYNEKFKGRVTVTADTSTNTAYMELSSLRSEDTAVYYCARSYDFAWFAYWGQGTLVTVSSGGGGSGGGGSGGGGSDIQMTQSPSSLSASVGDRVTITCKSSQSLLYSSNQKIYLAWYQQKPGKAPKLLIYWASTRESGVPSRFSGSGSGTDFTFTISSLQPEDIATYYCQQYYRYPRTFGQGTKVEIKR
notes: also called scFv 4.9M; HMFG1-scFv 4.9M
For the molecule B2, the Kd was determined as 103 nM in assay [1] and 195 nM in assay [4]. The “fold decrease in antigen binding affinity after 1 hour at 37° C. in PBS” value in assay [3] worked out at 1.9 fold.
